Data on 1 molecule can be found in publication PMC6820730 (2019).

No end group written: not given here.

The target in the test is AVPR1a (Homo sapiens, UniProt P37288). In words: 125I-OVTA competition binding, intact CHO cells.
Sequence of AVPR1a (P37288 whole entry): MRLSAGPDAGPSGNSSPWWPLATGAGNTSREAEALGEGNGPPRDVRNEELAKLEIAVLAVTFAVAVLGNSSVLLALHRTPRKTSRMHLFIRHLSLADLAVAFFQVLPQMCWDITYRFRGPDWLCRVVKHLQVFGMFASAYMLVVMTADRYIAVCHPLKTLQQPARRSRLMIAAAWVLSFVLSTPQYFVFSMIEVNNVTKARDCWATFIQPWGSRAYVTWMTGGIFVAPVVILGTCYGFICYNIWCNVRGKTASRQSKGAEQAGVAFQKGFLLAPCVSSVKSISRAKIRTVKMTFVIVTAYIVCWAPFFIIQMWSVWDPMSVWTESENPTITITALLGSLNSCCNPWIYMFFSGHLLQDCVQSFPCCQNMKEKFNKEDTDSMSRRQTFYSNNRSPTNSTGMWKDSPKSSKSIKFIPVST

Molecule CYIQNCPPG (not fully specified; cysteine pairing not given here) [Pro8-OXT] showed a Ki of 8.71 nM.

For orientation: Ki means a dissociation constant, usually derived from enzyme kinetics or from competition with a known ligand. High values mean weaker binding, low ones tighter binding.
